Here are results for two molecules from patent publication US20040053276A1 (published 2004).

B2: human DRL90h-FLAG fusion protein, 7.1 kDa molecule cleaved at the furin cleavage site (other)
chain: [pGlu]DRPSKPGFPDEPMREYMHHLLALEHRAEEQFLEHWLNPHCKPHCDRNRIHPVVDYKDDDDK
modifications: also: a pair of intramolecular disulfide bonds
notes: C-terminal processing product of the COS-7 DRL90h-FLAG fusion; The FLAG tail is inferred from detection and purification with anti-FLAG antibody; also called major component of the human DRL90 gene product

Data set [1] deals with B2. Briefly: non-reducing versus reducing SDS-PAGE and anti-FLAG Western blot; disulfide-linked dimer of the uncleaved and cleaved forms. The protocol:
(§1) Transfection was carried out using 1 µg/well of the pDRL90h-FLAG DNA constructed in Example 3 and Effectene (Qiagen). Twenty-four hours after the transfection, the medium was replaced with serum-free DMEM medium supplemented with 1 ml of 0.1 mM pABSF (Wako Purechemical Industries) and 0.05% CHAPS (Dojin Chemical). Then, the cells were cultured further for 48 hr. The culture supernatant was transferred into Eppendorf sample tubes and centrifuged. After removal of floating cells, the supernatant was concentrated to about 1/10 in volume with Centricon YM-3 ultrafiltration membrane (Millipore). An equal volume of Tricine SDS-PAGE sample buffer (TEFCO) was added to the resultant concentrated culture supernatant. With respect to the cells, they were washed in 1 ml of PBS (Gibco BRL) twice and then 500 l of Tricine SDS-PAGE sample buffer was added thereto. […] After blocking the nitrocellulose filter with PBS containing 0.1% Tween 20 and 50% Block Ace (Snow Brand Milk Products), human DRL90-FLAG fusion protein was detected with antibodies. […] For luminescence, ECL Western Blotting Kit (Amersham Pharmacia Biotech) was used. Chemiluminescence was detected with Hyperfilm ECL (Amersham Pharmacia Biotech). […] The fusion protein in cell fractions was detected as a polypeptide of approx. 9.2 kDa under reducing conditions and as a polypeptide of approx. 21 kDa under non-reducing conditions.
For orientation: Immunoblotting shows a protein as a band on a membrane.

Data set [2] deals with the molecule itself. The data set is described as follows: non-reducing versus reducing SDS-PAGE and anti-FLAG Western blot; disulfide-linked dimer (approx. 21 kDa). The protocol: as §1
Data set [3] concerns the molecule itself. Briefly: non-reducing versus reducing SDS-PAGE and anti-FLAG Western blot; disulfide-linked dimer of the cleaved form. How it is done: as §1

[ ]: non-standard residue; d: D form. pGlu = O=C1CC[C@@H](C(=O)O)N1

B1: human DRL90h-FLAG fusion protein, 9.2 kDa molecule not cleaved at the furin cleavage site (other)
chain: SPILTEKQAKQLLRSRRQDRPSKPGFPDEPMREYMHHLLALEHRAEEQFLEHWLNPHCKPHCDRNRIHPVVDYKDDDDK
notes: Expressed in COS-7 cells from pDRL90h-FLAG; It was detected on Western blots after SDS-PAGE; also called human DRL90-FLAG fusion protein
B1: the binding result in data set [1] and in data set [2] was “binds” each time. Regarding B2, the binding result in data set [3] is “binds”.
